Test results reported in paper PMC4569318 (Molecular Biology of the Cell, 2015).
Numbering of substitutions follows the chain as printed. Each block holds one binder with its values, some of them ahead of it.

Assays:
[1] = molecular target: T1, Sro7 (wild type, full length) (S. cerevisiae, UniProt Q12038 1-1033); test: pull-down
T1 sequence: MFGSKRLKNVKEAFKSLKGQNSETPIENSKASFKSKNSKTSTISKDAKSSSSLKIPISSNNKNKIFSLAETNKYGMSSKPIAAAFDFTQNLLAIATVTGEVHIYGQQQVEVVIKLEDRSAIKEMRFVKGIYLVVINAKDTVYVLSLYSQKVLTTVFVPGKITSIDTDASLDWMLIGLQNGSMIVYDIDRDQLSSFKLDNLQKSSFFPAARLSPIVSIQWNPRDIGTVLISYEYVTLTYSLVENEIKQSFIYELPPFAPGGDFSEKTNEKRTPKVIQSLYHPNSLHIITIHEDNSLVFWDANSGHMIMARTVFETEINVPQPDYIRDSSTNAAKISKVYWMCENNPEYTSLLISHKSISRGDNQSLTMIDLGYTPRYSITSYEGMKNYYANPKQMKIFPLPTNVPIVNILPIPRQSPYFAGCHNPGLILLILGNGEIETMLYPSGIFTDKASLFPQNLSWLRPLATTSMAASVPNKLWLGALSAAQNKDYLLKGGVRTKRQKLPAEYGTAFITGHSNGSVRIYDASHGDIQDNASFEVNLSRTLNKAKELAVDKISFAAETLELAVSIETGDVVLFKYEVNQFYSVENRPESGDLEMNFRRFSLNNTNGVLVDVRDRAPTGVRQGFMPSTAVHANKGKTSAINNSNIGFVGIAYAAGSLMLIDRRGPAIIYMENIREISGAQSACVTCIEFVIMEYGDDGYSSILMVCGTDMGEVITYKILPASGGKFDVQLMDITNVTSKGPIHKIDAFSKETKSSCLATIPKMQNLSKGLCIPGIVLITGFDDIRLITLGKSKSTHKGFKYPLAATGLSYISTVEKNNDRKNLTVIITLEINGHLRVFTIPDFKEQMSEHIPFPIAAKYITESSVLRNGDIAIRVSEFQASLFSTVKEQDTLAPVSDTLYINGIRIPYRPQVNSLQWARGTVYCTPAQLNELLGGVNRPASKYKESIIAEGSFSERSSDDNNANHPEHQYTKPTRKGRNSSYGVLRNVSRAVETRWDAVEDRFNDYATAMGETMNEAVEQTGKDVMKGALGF

[2] = molecular target: T2, Sro7-D361K (S. cerevisiae, UniProt Q12038 1-1033, D361K); test: pull-down
T2 sequence: T1 sequence with D361K

- binding result [1]: binds
- binding result [2]: binds
B1: GST-Sec4 (wild type) (natural protein)
chain: MSGLRTVSASSGNGKSYDSIMKILLIGDSGVGKSCLLVRFVEDKFNPSFITTIGIDFKIKTVDINGKKVKLQLWDTAGQERFRTITTAYYRGAMGIILVYDVTDERTFTNIKQWFKTVNEHANDEAQLLLVGNKSDMETRVVTADQGEALAKELGIPFIESSAKNDDNVNEIFFTLAKLIQEKIDSNKLVGVGNGKEGNISINSGSGNSSKSNCC

- binding result [1]: binds
B2: GST-Sec9 (full length) (natural protein)
chain: MGLKKFFKIKPPEEATPEQNKDTLMELGISVKNPSKKRKEKFAAYGKFANDKAEDKVYAPPGYEQYARPQDELEDLNASPLDANANEATAGSNRGSSGTQDLGNGAESNSMQDPYAIENDDYRYDDDPYARFQANKSNGRGSVNAAPYGDYGGGYNGTSLNSYNNDGPYSNQNTSNSWVNANGRNSLNHSNSTLNVGPSRQTRQPPVSTSTNSLSLDQRSPLANPMQEKRNPYADMNSYGGAYDSNTNRSSGTRQGSSKNANPYASMANDSYSNGNLNRSANPYSSRSVRQPQSQQAPMTYTPSFIASDEAARNSEVDLNEEPRTGEFDFEEVYADKSAENRAALDEPDLNAVMTNEDSIDLNASEVDHSSRQQQQQQWFMDEQQQQQQHFNATNNQYGDQRGYKTFEEIQKEEEARQQQEEDEAVDEIKQEIKFTKQSSVASTRNTLKMAQDAERAGMNTLGMLGHQSEQLNNVEGNLDLMKVQNKVADEKVAELKKLNRSILAVHVSNPFNSKRRRREREEQLKNRKIEEKLMREQTSQQLSQSTQRIEGAMNANNNISEVRERYQRKNVLEKAKRYQFENDEEDDEMELEIDRNLDQIQQVSNRLKKMALTTGKELDSQQKRLNNIEESTDDLDINLHMNTNRLAGIR
